Sequences and labels used below:
B3: prey clone No. 3-309: C-terminal 91 amino acids of the human c-Met β chain fused to GAL4-AD (other, not shown: large carriers)
chain: RRLLQPEYCPDPLYEVMLKCWHPKAEMRPSFSELVSRISAIFSTFIGEHYVHVNATYVNVKCVAPYPSLLSSEDNADDEVDTRPASFWETS
notes: also called human HGF receptor c-Met prey vector

For experiment [1], the target named is T1, human MERMUC bait-2 protein (C-terminal 123 amino acids of human MERMUC fused to GAL4-DB) (yeast; human).
T1 construct: also called MERMUC bait protein; fusion protein A
The experiment is described as follows: yeast two-hybrid screen of a human kidney cDNA library. The protocol:
Specifically, yeast two hybrid system (Proc. Natl. Acad. Sci. USA., 1991, Vol.88, p.9578-9582) was performed to screen a human kidney cDNA library using cDNA corresponding to the C-terminal region of the human MERMUC as the bait (that is, fishing bait).
On the other hand, each cDNA of the human kidney derived cDNA library (CLONTECH) that is used for the screening with the bait vector is inserted in pADK vector (tryptophan biosynthesis gene as a marker). Therefore, proteins produced through the expression of each of these cDNAs in yeast are produced as a fusion protein ([fusion protein B]) with the GAL4 transcriptional activation region (GAL4-AD).

The target in experiment [2] is MERMUC bait protein C260 (amino acids 244-503 of SEQ ID NO: 10) fused to GAL4-DB (yeast; human, UniProt P04386 1-147). The experiment is described as follows: yeast two-hybrid. The procedure: (§1) Yeast AH109 strain was cotransfected with each of the bait vectors and the prey vector carrying human HGF receptor c-Met (DNA corresponding to the C-terminal 91 amino acids of the human c-Met; clone No. 3-309) identified in Example 1.
(§2) The binding ability of MERMUC bait protein derived from each of the bait vectors to the HGF receptor c-Met β chain was analyzed by the yeast two-hybrid system described above.

For experiment [3], the target named is MERMUC bait protein C53 (amino acids 451-503 of SEQ ID NO: 10) fused to GAL4-DB (yeast; human, UniProt P04386 1-147). The experiment is described as follows: yeast two-hybrid. The procedure:
as §1, §2

Experiment [4] concerns the target T1, human MERMUC bait-2 protein (C-terminal …). The experiment is described as follows: yeast two-hybrid (growth on SD/-Leu,-Trp,-His and SD/-Leu,-Trp,-Ade). The protocol: The binding activity between the c-Met prey proteins derived from the 7 DNA fragments and the MERMUC bait protein was analyzed by the yeast two-hybrid system described in Example 1. Specifically, the binding activity was evaluated based on the growth of yeast transformed with the vector on 2 kinds of yeast minimum media, i.e., (1) SD/-Leu, -Trp, -His media and (2) SD/-Leu, -Trp, -Ade media.

For experiment [5], the target named is B3. The experiment is described as follows: yeast two-hybrid. The procedure: as §1, §2

B1: prey clone No. 2-211: C-terminal 56 amino acids of human MERMUC fused to GAL4-AD (other, not shown: large carriers)
chain: VSAGENGGFLLLRLSVASPEDLTDPRVAERLMQQLHRELHAHAPHFQVSLLRVRRG
Consider B1, for which the binding result in experiment [1] was “binds”.

B2: prey clone No. 2-22: C-terminal 93 amino acids of human MERMUC fused to GAL4-AD (other, not shown: large carriers)
chain: SSRGTNSTLAKITTSAKTTMKPPTATPTTARTRPTTDVSAGENGGFLLLRLSVASPEDLTDPRVAERLMQQLHRELHAHAPHFQVSLLRVRRG
Regarding B2, the binding result in experiment [1] was “binds”.

On to B3, for which the binding result in experiment [2], in experiment [3] and in experiment [1] was “binds” in each case.

B4: c-Met prey protein B (amino acids 1013-1083 of SEQ ID NO: 4) fused to GAL4-AD (other, not shown: large carriers)
chain: WHPKAEMRPSFSELVSRISAIFSTFIGEHYVHVNATYVNVKCVAPYPSLLSSEDNADDEVDTRPASFWETS
notes: also called prey DNA B
B4: the binding result in experiment [4] is listed as “binds”.

B5: c-Met prey protein G (amino acids 993-1043 of SEQ ID NO: 4) fused to GAL4-AD (other, not shown: large carriers)
chain: RRLLQPEYCPDPLYEVMLKCWHPKAEMRPSFSELVSRISAIFSTFIGEHYV
notes: also called prey DNA G
Take B5: in experiment [4], the binding result is on record as “no binding”.

B6: c-Met prey protein A (amino acids 1003-1083 of SEQ ID NO: 4) fused to GAL4-AD (other, not shown: large carriers)
chain: DPLYEVMLKCWHPKAEMRPSFSELVSRISAIFSTFIGEHYVHVNATYVNVKCVAPYPSLLSSEDNADDEVDTRPASFWETS
notes: also called prey DNA A
On to B6, for which, in experiment [4], the binding result is given as “binds”.

B7: prey clone No. 3-312: C-terminal 89 amino acids of the human c-Met β chain fused to GAL4-AD (other, not shown: large carriers)
chain: LLQPEYCPDPLYEVMLKCWHPKAEMRPSFSELVSRISAIFSTFIGEHYVHVNATYVNVKCVAPYPSLLSSEDNADDEVDTRPASFWETS
Consider B7, for which, in experiment [1], the binding result is reported as “binds”.

B8: c-Met prey protein C (amino acids 1023-1083 of SEQ ID NO: 4) fused to GAL4-AD (other, not shown: large carriers)
chain: FSELVSRISAIFSTFIGEHYVHVNATYVNVKCVAPYPSLLSSEDNADDEVDTRPASFWETS
notes: also called prey DNA C
As to B8, the binding result in experiment [4] is reported as “no binding”.

B9: MERMUC bait protein C260ΔC53 (amino acids 244-450 of SEQ ID NO: 10) fused to GAL4-DB (other, not shown: small tags and cut ends)
chain: VKASSTSDPPALPDSTEAKPHITEVTASAETLSTAGTTESAAPHATVGTPLPTNSATEREVTAPGATTLSGALVTVSRNPLEETSALSVETPSYVKVSGAAPVSIEAGSAVGKTTSFAGSSASSYSPSEAALKNFTPSETPTMDIATKGPFPTSRDPLPSVPPTTTNSSRGTNSTLAKITTSAKTTMKPPTATPTTARTRPTTDVSA
notes: also called C260A53; C260AC53
Turning to B9, the binding result in experiment [5] is “no binding”.

For the origin of these results see patent US20050113284A1 (published 2005).
